Assay [1] addresses Fluos-msR4M-L1 (human) (UniProt P61073). Kind of assay: other fluorescence titration; 5 nM Fluos-labeled ectodomain peptide titrated with unlabeled MIF, MIF peptide or CXCL12; 10 mM sodium phosphate, pH 7.4, 1% HFIP; emission at 522 nm; apparent KD, 1/1 binding model; one constant for each of three curves.
The target is the same in assay [2]. Kind of assay: fluorescence polarisation; 5 nM Fluos-msR4M-L1 titrated with unlabeled MIF (0.5 to 277.5 nM); 10 mM sodium phosphate, pH 7.2, 0.5% HFIP; RT; apparent KD. In general terms: In fluorescence polarisation assays a small probe gives low polarisation when free and higher when bound to something large.
The target in assay [3] is 5(6)-carboxytetramethylrhodamine (TAMRA)-msR4M-L1 (human) (UniProt P61073). Kind of assay: MST; 100 nM TAMRA-msR4M-L1 titrated with MIF or CXCL12; 20 mM sodium phosphate, pH 7.2, Tween-20; 37 °C; apparent KD.
In assay [4] the target is Fluos-ECL2 (fluorescein-labelled ECL2[182–196] peptide of CXCR4) (human) (UniProt P61073). Kind of assay: other fluorescence titration; Fluos-labelled CXCR4 ectodomain peptide at 5 nM titrated with unlabelled MIF, MIF(10xAla), CXCL12 or MIF peptide fragments; 10 mM sodium phosphate, pH 7.4, 1% HFIP; emission at 522 nm; apparent KD, 1/1 binding model.

“And” between values parts separate entries of the source, which are not always exact repeats. Equal values may be shown once. Some results are limits rather than exact numbers.

The record followed here is PMC7689490, “Designed CXCR4 mimic acts as a soluble chemokine receptor that blocks atherogenic inflammation by agonist-specific targeting” (Nature Communications, 2020).

In the case of “macrophage migration-inhibitory factor (MIF), recombinant human (from UniProt P14174 1-115) (natural protein)”, the Kd is 44.7 nM and 40.4 nM and 36.9 nM in assay [1]; 24.1 nM and 19.3 nM and 29.9 nM in assay [2]; 51.7 nM and 120 nM and 60.1 nM in assay [3].
For the substance “MIF peptide 38–80 (from UniProt P14174 38-80)”, in assay [1], the Kd was 64.6 nM and 49 nM and 57.7 nM.
“macrophage migration-inhibitory factor (MIF), recombinant human, unlabelled (from UniProt P14174 1-115) (natural protein)”: in assay [4], the Kd is greater than 5000 nM.
Consider “MIF peptide 54–80 (from UniProt P14174 54-80)”, for which the Kd in assay [1] was 86.6 nM and 59.7 nM and 65.3 nM.
